Assay results published in the supplement of paper PMC10065799, “High-throughput profiling of sequence recognition by tyrosine kinases and SH2 domains using bacterial peptide display” (eLife, 2023).

biological target: Hck (UniProt P08631); experiment: phosphorylation enrichment, bacterial display (enrichment ratio); higher = better substrate or ligand; peptides without Tyr show the background
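Also: 11-residue human phosphosite peptides and single-mutation variants displayed on the E. coli surface, counted by deep sequencing, each peptide's frequency after selection divided by its frequency in the unselected input library; frequency after pTyr selection over input frequency; kinase dosed for 20-30% of maximal phosphorylation in three min.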

Chain of Hck (P08631 whole entry, looked up): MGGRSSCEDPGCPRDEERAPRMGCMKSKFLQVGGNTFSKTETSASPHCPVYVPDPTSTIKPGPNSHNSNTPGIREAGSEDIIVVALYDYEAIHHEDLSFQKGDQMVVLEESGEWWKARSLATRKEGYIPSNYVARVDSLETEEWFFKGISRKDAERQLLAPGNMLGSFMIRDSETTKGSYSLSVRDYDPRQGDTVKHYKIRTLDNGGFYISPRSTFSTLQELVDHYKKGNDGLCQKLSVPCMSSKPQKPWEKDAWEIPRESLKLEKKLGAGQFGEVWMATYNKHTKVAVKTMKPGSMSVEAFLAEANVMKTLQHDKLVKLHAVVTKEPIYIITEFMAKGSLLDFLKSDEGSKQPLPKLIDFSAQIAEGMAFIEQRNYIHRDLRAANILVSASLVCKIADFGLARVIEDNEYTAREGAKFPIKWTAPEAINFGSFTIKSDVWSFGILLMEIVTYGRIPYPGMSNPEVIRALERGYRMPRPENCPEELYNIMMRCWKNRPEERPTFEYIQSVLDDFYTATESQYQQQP

Sequence | phosphorylation enrichment
FDSPFYQDSLP [TSC1_Y508_R509Q] | 0.521
HKANEYYPVVL [ADAMTS18_Y764] | 1.95
GVMLLYYGRYN [ADGRD1_Y85_T82M] | 1.21
SSSNPYSTVTM [ACTN2_Y599] | 0.995
AEQEEYSAMRD [NRAS_Y64_G60E] | 0.571
GKTQQYECKWF [BCR_Y751_D752E_YF] | 0.569
RELGEYALAEF [ALDH1A3_Y492_YF] | 0.661
TYGQVYKGPHV [TNIK_Y40_R43P] | 7.7
RLGDLYKEEMR [VIM_Y150_E151K] | 0.824
EEKKKYYDAKI [CASP5_Y103_T106A] | 0.411
PTDSVYVMPTV [MYO7A_Y1668] | 3.43
NQDRTYYESVR [SPEN_Y632] | 2.05
FSTDCYRVGGH [NTRK2_Y707_Y706C_YF] | 0.646
KDQPDYKFQPR [SOX9_Y172_H169Q_YF] | 0.386
KSVLVYRNGDP [DCDC2_Y22] | 0.405
FTHSDYQFSQR [PKP2_Y166_YF] | 0.508
ADRNHYRRFRR [YBX1_Y145_P149R_YF] | 0.544

Sequence | phosphorylation enrichment
FARNSYVAGQY [G6PD_Y107] | 0.385
FSEVRYMKEPY [HIPK4_Y170_V171M] | 0.536
FFFDLYGGEKF [PTPN11_Y66_D61Y_YF] | 0.981
VYYGSYSCPYG [NKAP_Y104_R106C] | 4.99
SSFSRYIMMPN [LEF1_Y114_G113R_YF] | 0.559
LGSNTYPFLLT [SAG_Y120] | 0.54
DTLLEYLENPK [CYCS_Y68_M66L] | 0.511
AKAEICEMRPL [COX10_Y97_Y97C] | 0.608
IGEVVYQRAVM [GRIN2A_Y502] | 2.19
SFCFRYRCAAR [SUMF1_Y344_YF] | 0.469
LTFDEYRNNSQ [ANXA3_Y216_I219N] | 0.443
RVLHNYLVWRV [ECEL1_Y400] | 1.01
SLVGCYNLTFM [HS6ST3_Y323] | 0.745
LKTNCYNNGKD [DNMT3B_Y404] | 0.879
TLERHYEELQA [SPTBN2_Y834] | 0.591
CTTIHYSFMCN [TP53_Y234_N235S_YF] | 0.559

biological target: Jak2 (UniProt O60674); experiment: as above
Sequence (O60674 whole entry, looked up): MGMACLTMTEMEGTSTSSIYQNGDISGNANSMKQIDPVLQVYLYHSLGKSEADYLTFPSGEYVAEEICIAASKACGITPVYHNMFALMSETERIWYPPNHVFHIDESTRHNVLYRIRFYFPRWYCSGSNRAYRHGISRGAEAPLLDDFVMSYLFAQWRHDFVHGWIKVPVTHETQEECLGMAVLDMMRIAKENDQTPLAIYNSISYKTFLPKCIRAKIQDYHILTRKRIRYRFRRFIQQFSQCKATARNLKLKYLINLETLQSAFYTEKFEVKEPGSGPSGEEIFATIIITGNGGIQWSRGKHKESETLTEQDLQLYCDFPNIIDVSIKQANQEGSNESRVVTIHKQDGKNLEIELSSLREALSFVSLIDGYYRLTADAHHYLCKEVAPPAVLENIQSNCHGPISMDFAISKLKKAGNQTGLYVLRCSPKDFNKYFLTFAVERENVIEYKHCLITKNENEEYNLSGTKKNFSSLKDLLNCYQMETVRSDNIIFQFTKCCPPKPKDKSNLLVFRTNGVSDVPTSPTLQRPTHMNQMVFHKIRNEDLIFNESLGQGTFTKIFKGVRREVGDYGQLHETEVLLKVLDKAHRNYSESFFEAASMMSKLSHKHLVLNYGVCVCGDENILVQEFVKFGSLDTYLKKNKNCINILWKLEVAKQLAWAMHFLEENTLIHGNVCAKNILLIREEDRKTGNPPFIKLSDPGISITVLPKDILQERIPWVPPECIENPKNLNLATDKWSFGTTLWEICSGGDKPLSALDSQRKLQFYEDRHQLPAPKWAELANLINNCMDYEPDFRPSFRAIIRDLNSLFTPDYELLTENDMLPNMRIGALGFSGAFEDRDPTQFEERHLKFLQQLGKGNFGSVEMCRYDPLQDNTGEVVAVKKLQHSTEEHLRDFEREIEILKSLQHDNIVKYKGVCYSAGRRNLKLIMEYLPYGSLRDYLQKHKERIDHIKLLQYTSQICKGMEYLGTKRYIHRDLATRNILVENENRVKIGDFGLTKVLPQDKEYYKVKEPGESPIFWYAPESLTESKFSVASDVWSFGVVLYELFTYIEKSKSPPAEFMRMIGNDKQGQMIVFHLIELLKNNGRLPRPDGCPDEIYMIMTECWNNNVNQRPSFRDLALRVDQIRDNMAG

Sequence | phosphorylation enrichment
FDSPFYQDSLP [TSC1_Y508_R509Q] | 0.805
HKANEYYPVVL [ADAMTS18_Y764] | 9.18
GVMLLYYGRYN [ADGRD1_Y85_T82M] | 1.34
SSSNPYSTVTM [ACTN2_Y599] | 0.599
AEQEEYSAMRD [NRAS_Y64_G60E] | 1.14
GKTQQYECKWF [BCR_Y751_D752E_YF] | 0.793
RELGEYALAEF [ALDH1A3_Y492_YF] | 0.821
TYGQVYKGPHV [TNIK_Y40_R43P] | 0.826
RLGDLYKEEMR [VIM_Y150_E151K] | 0.995
EEKKKYYDAKI [CASP5_Y103_T106A] | 0.848
PTDSVYVMPTV [MYO7A_Y1668] | 0.827
NQDRTYYESVR [SPEN_Y632] | 0.762
FSTDCYRVGGH [NTRK2_Y707_Y706C_YF] | 1.05
KDQPDYKFQPR [SOX9_Y172_H169Q_YF] | 0.491
KSVLVYRNGDP [DCDC2_Y22] | 0.55
FTHSDYQFSQR [PKP2_Y166_YF] | 0.589
ADRNHYRRFRR [YBX1_Y145_P149R_YF] | 0.579

Sequence | phosphorylation enrichment
FARNSYVAGQY [G6PD_Y107] | 0.502
FSEVRYMKEPY [HIPK4_Y170_V171M] | 0.781
FFFDLYGGEKF [PTPN11_Y66_D61Y_YF] | 0.993
VYYGSYSCPYG [NKAP_Y104_R106C] | 2.28
SSFSRYIMMPN [LEF1_Y114_G113R_YF] | 0.812
LGSNTYPFLLT [SAG_Y120] | 0.785
DTLLEYLENPK [CYCS_Y68_M66L] | 1.04
AKAEICEMRPL [COX10_Y97_Y97C] | 0.716
IGEVVYQRAVM [GRIN2A_Y502] | 0.688
SFCFRYRCAAR [SUMF1_Y344_YF] | 0.643
LTFDEYRNNSQ [ANXA3_Y216_I219N] | 1.38
RVLHNYLVWRV [ECEL1_Y400] | 1.07
SLVGCYNLTFM [HS6ST3_Y323] | 1.39
LKTNCYNNGKD [DNMT3B_Y404] | 1.24
TLERHYEELQA [SPTBN2_Y834] | 0.947
CTTIHYSFMCN [TP53_Y234_N235S_YF] | 0.734

biological target: MERTK (UniProt Q12866); experiment: as above
Sequence (Q12866 whole entry, looked up): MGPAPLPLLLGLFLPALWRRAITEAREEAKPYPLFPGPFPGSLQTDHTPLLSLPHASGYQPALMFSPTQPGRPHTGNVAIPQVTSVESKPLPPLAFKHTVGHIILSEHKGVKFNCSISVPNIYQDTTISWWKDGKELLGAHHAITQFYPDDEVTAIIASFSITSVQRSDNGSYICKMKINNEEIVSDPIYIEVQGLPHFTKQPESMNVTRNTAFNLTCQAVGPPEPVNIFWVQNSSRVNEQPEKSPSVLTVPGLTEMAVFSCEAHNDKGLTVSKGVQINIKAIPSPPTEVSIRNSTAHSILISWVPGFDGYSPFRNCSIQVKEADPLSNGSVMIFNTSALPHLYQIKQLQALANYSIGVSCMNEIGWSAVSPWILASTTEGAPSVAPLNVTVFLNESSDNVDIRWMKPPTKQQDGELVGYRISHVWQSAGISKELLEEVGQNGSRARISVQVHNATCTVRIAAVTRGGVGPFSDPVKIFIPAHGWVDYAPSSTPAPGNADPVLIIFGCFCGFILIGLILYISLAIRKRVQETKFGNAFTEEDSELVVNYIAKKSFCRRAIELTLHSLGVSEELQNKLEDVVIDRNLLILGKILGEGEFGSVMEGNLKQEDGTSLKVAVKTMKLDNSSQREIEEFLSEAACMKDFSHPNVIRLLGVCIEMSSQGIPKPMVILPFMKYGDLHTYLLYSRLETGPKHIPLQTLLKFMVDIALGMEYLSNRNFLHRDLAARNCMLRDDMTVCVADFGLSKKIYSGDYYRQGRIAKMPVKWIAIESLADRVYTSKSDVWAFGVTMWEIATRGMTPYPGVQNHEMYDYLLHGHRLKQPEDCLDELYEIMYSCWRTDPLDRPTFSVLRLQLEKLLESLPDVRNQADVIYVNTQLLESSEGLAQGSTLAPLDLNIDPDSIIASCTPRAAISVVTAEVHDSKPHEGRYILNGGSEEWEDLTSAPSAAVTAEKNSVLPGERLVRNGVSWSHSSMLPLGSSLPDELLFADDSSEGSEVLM

Sequence | phosphorylation enrichment
FDSPFYQDSLP [TSC1_Y508_R509Q] | 0.431
HKANEYYPVVL [ADAMTS18_Y764] | 1.13
GVMLLYYGRYN [ADGRD1_Y85_T82M] | 0.416
SSSNPYSTVTM [ACTN2_Y599] | 0.521
AEQEEYSAMRD [NRAS_Y64_G60E] | 0.478
GKTQQYECKWF [BCR_Y751_D752E_YF] | 0.467
RELGEYALAEF [ALDH1A3_Y492_YF] | 0.478
TYGQVYKGPHV [TNIK_Y40_R43P] | 0.618
RLGDLYKEEMR [VIM_Y150_E151K] | 0.362
EEKKKYYDAKI [CASP5_Y103_T106A] | 0.429
PTDSVYVMPTV [MYO7A_Y1668] | 8.35
NQDRTYYESVR [SPEN_Y632] | 1.02
FSTDCYRVGGH [NTRK2_Y707_Y706C_YF] | 0.652
KDQPDYKFQPR [SOX9_Y172_H169Q_YF] | 0.46
KSVLVYRNGDP [DCDC2_Y22] | 0.355
FTHSDYQFSQR [PKP2_Y166_YF] | 0.383
ADRNHYRRFRR [YBX1_Y145_P149R_YF] | 0.672

Sequence | phosphorylation enrichment
FARNSYVAGQY [G6PD_Y107] | 0.405
FSEVRYMKEPY [HIPK4_Y170_V171M] | 0.463
FFFDLYGGEKF [PTPN11_Y66_D61Y_YF] | 0.371
VYYGSYSCPYG [NKAP_Y104_R106C] | 4.18
SSFSRYIMMPN [LEF1_Y114_G113R_YF] | 0.588
LGSNTYPFLLT [SAG_Y120] | 0.589
DTLLEYLENPK [CYCS_Y68_M66L] | 0.448
AKAEICEMRPL [COX10_Y97_Y97C] | 0.437
IGEVVYQRAVM [GRIN2A_Y502] | 0.513
SFCFRYRCAAR [SUMF1_Y344_YF] | 0.614
LTFDEYRNNSQ [ANXA3_Y216_I219N] | 0.4
RVLHNYLVWRV [ECEL1_Y400] | 0.79
SLVGCYNLTFM [HS6ST3_Y323] | 0.498
LKTNCYNNGKD [DNMT3B_Y404] | 0.601
TLERHYEELQA [SPTBN2_Y834] | 0.578
CTTIHYSFMCN [TP53_Y234_N235S_YF] | 0.843

system: c-Abl (mouse); experiment: as above

Sequence | phosphorylation enrichment
FDSPFYQDSLP [TSC1_Y508_R509Q] | 0.737
HKANEYYPVVL [ADAMTS18_Y764] | 2.49
GVMLLYYGRYN [ADGRD1_Y85_T82M] | 0.594
SSSNPYSTVTM [ACTN2_Y599] | 0.768
AEQEEYSAMRD [NRAS_Y64_G60E] | 0.802
GKTQQYECKWF [BCR_Y751_D752E_YF] | 0.614
RELGEYALAEF [ALDH1A3_Y492_YF] | 0.849
TYGQVYKGPHV [TNIK_Y40_R43P] | 0.666
RLGDLYKEEMR [VIM_Y150_E151K] | 0.762
EEKKKYYDAKI [CASP5_Y103_T106A] | 0.565
PTDSVYVMPTV [MYO7A_Y1668] | 3.01
NQDRTYYESVR [SPEN_Y632] | 0.787
FSTDCYRVGGH [NTRK2_Y707_Y706C_YF] | 0.934
KDQPDYKFQPR [SOX9_Y172_H169Q_YF] | 0.457
KSVLVYRNGDP [DCDC2_Y22] | 0.446
FTHSDYQFSQR [PKP2_Y166_YF] | 0.619
ADRNHYRRFRR [YBX1_Y145_P149R_YF] | 0.507

Sequence | phosphorylation enrichment
FARNSYVAGQY [G6PD_Y107] | 0.449
FSEVRYMKEPY [HIPK4_Y170_V171M] | 0.695
FFFDLYGGEKF [PTPN11_Y66_D61Y_YF] | 0.665
VYYGSYSCPYG [NKAP_Y104_R106C] | 4.15
SSFSRYIMMPN [LEF1_Y114_G113R_YF] | 0.626
LGSNTYPFLLT [SAG_Y120] | 0.938
DTLLEYLENPK [CYCS_Y68_M66L] | 0.668
AKAEICEMRPL [COX10_Y97_Y97C] | 0.738
IGEVVYQRAVM [GRIN2A_Y502] | 8.27
SFCFRYRCAAR [SUMF1_Y344_YF] | 0.763
LTFDEYRNNSQ [ANXA3_Y216_I219N] | 1.13
RVLHNYLVWRV [ECEL1_Y400] | 0.762
SLVGCYNLTFM [HS6ST3_Y323] | 1.12
LKTNCYNNGKD [DNMT3B_Y404] | 3.04
TLERHYEELQA [SPTBN2_Y834] | 0.836
CTTIHYSFMCN [TP53_Y234_N235S_YF] | 0.828
